This is an account of results in patent publication US20080300209, “GENE EXPRESSION AND PAIN” (ADYNXX, INC., published 2008).

The target of data set [1] is T1, EGR1 (Homo sapiens, UniProt P18146 P18146:1-543). The data set is described as follows: competition; ELISA; self-competition vs 128 nM biotinylated SEQ 40 probe, 10 ug nuclear extract. The following applies: protein: extract; tags: endogenous in nuclear extract of TPA-stimulated K-562 cells (Activemotif); label: biotin (probe). As for the experimental part:
(§1) FIG. 2. A. Relative affinity. Quantitative competition ELISA involving hEGR1 were performed using a constant concentration of biotinylated SEQ ID NO.: 40 (128 nM) as the probe and 10 μg of protein extract. The probe-protein mix was incubated with increasing concentrations of SEQ ID NO.: 40, SEQ ID NO.: 41 or SEQ ID NO.: 42 competitors. The inhibition of hEGR1 binding by the probe was measured for each competitor at various concentrations and the resulting inhibition curves were fitted to an exponential decay model. […] Mean±SEM are given as a percentage of the maximum hEGR1 binding obtained with the probe in absence of competitor; n=2-4. B. Relative specificity. The relative binding of EGR1 oligonucleotide decoy sequences to hSP1 and hWT1 transcription factors was measured using quantitative ELISA. Top graph: representative OD binding values of SEQ ID NO.: 40 (128 nM) to either hSP1 or hWT1 transcription factors, as compared to hEGR1 binding, was detected with transcription factor-specific antibodies in either the presence or absence of SEQ ID NO.: 42 competitor (512 nM). For comparison, SEQ ID NO.: 11 binding to hSP1 is shown. […]
(§2) The affinity and specificity of decoy sequences for their transcription factor targets was measured with colorimetric transcription factor ELISA (Enzyme linked immuno adsorbent) kits (Panomics, Calif., USA). […]
(An ELISA detects its analyte on a solid surface through an enzyme-linked reagent.)

For data set [2], the target named is T2, EGR1 (endogenous, HL60 cells) (Homo sapiens, UniProt P18146 P18146:1-543). The data set is described as follows: cell_activity; inhibition of CDK5R1 mRNA in HL60 cells 48 h after vitamin D3; figure legend states 443 nM.
Data set [3] deals with T1, EGR1. The data set is described as follows: competition; ELISA vs 128 nM biotinylated SEQ 40 probe, 10 ug nuclear extract. The following applies: protein: extract; tags: endogenous in nuclear extract of TPA-stimulated K-562 cells (Activemotif). As for the experimental part:
as §1, §2

Data set [4] deals with T2, EGR1 (endogenous, HL60 cells). Kind of data set: cell_activity; inhibition of CDK5R1 mRNA in HL60 cells 48 h after vitamin D3; figure legend states 502 nM.
Data set [5] has the same target. The data set is described as follows: cell_activity; inhibition of CDK5R1 mRNA in HL60 cells 48 h after vitamin D3; figure legend states 136 nM.

T2 sequence (P18146 whole entry, one chain of several): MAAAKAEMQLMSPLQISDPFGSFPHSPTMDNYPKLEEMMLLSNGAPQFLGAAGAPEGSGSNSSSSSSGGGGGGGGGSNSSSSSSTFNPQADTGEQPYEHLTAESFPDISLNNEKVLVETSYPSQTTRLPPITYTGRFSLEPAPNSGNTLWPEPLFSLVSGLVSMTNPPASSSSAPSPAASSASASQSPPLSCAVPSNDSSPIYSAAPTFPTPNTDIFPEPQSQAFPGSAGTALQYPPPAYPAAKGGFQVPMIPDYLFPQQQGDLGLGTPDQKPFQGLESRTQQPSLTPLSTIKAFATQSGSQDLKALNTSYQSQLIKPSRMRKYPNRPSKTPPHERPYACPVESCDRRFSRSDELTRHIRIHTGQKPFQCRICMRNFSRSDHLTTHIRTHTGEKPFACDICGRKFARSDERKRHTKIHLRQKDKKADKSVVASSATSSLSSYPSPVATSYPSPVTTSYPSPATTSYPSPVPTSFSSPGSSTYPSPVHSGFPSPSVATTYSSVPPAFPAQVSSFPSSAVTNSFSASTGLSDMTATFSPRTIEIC
T1 sequence (P18146 whole entry, one chain of several): as above

B1: SEQ ID NO 40 double EGR1 site decoy (dsDNA)
DNA 1: GTTATGCGTGGGCGTAGATGCGGGGGCGTTATAG
DNA 2: CTATAACGCCCCCGCATCTACGCCCACGCATAAC
B1: the IC50 in the data set with EGR1 [1] came to 215 nM; in data set [2] it was 544 nM.

B2: SEQ ID NO 41 EGR1 consensus decoy (dsDNA)
DNA 1: GATGCGTGGGCGTAGG
DNA 2: CCTACGCCCACGCATC
B2: the IC50 is 250 nM with EGR1 [3] and 529 nM in data set [4].

B3: SEQ ID NO 42 fused EGR1 sites decoy (dsDNA)
DNA 1: GTATGCGTGGGCGGTGGGCGTAG
DNA 2: CTACGCCCACCGCCCACGCATAC
For the molecule B3, the 50% inhibitory concentration (IC50) in the data set with EGR1 [3] was 99 nM; in data set [5] it was 150 nM.

What is called IC50 is the concentration that gives 50% inhibition. Read a high IC50 as a need for much substance.
